These results are taken from patent publication EP4567818A1 (Nanjing GenScript Biotech Co., Ltd., dated 2025).

Assay [1] has as its target T1, TNFRSF9 protein (also referred to as CD137 protein) (Homo sapiens (Human), UniProt Q07011 24-186).
T1 construct: also called recombinant TNFRSF9 protein
The assay can be described thus: ELISA on coated TNFRSF9, CHO-S expression supernatant diluted 100-fold. Background: An ELISA detects its analyte on a solid surface through an enzyme-linked reagent.

For assay [2], the target named is T1, TNFRSF9 protein (also referred to as …). Nature of the assay: indirect ELISA, purified antibody on coated recombinant TNFRSF9 (0.5 ug/ml).

B1: rabbit monoclonal antibody 4C2-WTH before humanization (antibody, human IgG1, V domains shown)
VH: QSVEESGGRLVTPGTPLTLTCTVSGFSLGTFPIGWVRQAPGSGLEWIGIFNTDGSAAYASWARGRFTVFKNSTTVDLKMTSPTTEDTATYFCARINADYSGWYFGIWGPGTLVTVSS
VL: EMTQTPASVEVAVGGTVTIKCQASQSIYSYLAWYQQKPGQPPKPLIYEASKTPSGVPSRFKGSGSGTEYTLTISGVQCEDAATYYCQKGYSVSNVAFGGGTEVVVKR
notes: As tested it is a chimera: the original rabbit variable regions with the human IgG1 constant region, expressed from pcDNA3.4 in CHO-S cells; also called wild-type antibody; anti-CD137 rabbit antibody
Regarding B1, the “OD450 (100-fold dilution)” value in assay [1] was determined as 3.33 OD450. In addition, in assay [2], the EC50 (commonly the concentration that produces a half-maximal response) amounted to 3.8 ng/mL.
